{"source": "paper PMC7910607", "about": "“Structure-guided insights into heterocyclic ring-cleavage catalysis of the non-heme Fe (II) dioxygenase NicX” (Nature Communications, 2021)", "molecules": {"B1": {"name": "NicX (2,5-dihydroxypyridine dioxygenase) (Pseudomonas putida KT2440) (protein)", "chain": "MPVSNAQLTQMFEHVLKLSRVDETQSVAVLKSHYSDPRTVNAAMEAAQRLKAKVYAVELPAFNHPTAMGNDMTAYCGDTALTGNLAAQRALEAADLVVDTMMLLHSPEQEQILKTGTRILLAVEPPEVLARMLPTEDDKRRVLAAETLLKQARSLHVRSKAGSDFHAPLGQYPAVTEYGYADEPGRWDHWPSGFLFTWPNEDSAEGTLVLDVGDIILPFKNYCRERITLEIEKGFITGIHGGFEAEYLRDYMKYFNDPEVYGISHIGWGLQPRAQWTAMGLHDRNDGMCMDARAFYGNFLFSTGPNTEVGGKRKTPCHLDIPLRNCDIYLDDKAVVLAGDVVAPEESRAR", "notes": "full-length WT in pET-24a, C-terminal 6xHis tag, E. coli BL21(DE3), ~39 kDa, homohexamer, mononuclear Fe(II); domains residues 2-151 and 152-350"}, "B2": {"name": "SeMet-substituted NicX (enzyme, Pseudomonas putida KT2440, UniProt Q88FY1 1-350, looked up)", "chain": "B1 chain", "modifications": "selenomethionine (SeMet) substituted", "notes": "NicX, 2,5-dihydroxypyridine dioxygenase of Pseudomonas putida KT2440, selenomethionine-substituted form of the full-length construct; Same construct as m1, expressed with selenomethionine for SAD phasing; also called SeMet-NicX; Se-NicX; source: E. coli B834(DE3) in M9 minimal media, purified (Ni-NTA, Superdex200 gel filtration)"}, "B3": {"name": "2,5-Dihydroxypyridine dioxygenase (NicX) from Pseudomonas putida KT2440 (enzyme, UniProt Q88FY1 1-350, looked up)", "chain": "B1 chain", "notes": "NicX, 2,5-dihydroxypyridine dioxygenase of Pseudomonas putida KT2440, full-length wild type; residues 2-350 described in the structure; Cloned into pET-24a between NdeI and HindIII with a C-terminal His tag; in PDB 7CN3 the crystals were soaked with Fe2+ and DHP (subunits C-F hold DHP, A and B hold NFM); also called WT NicX; wild type NicX; source: E. coli BL21(DE3), purified (Ni-NTA, Superdex200 …)"}}, "key": {"[1]": {"target": "T1, NicX (2,5-dihydroxypyridine dioxygenase) (Pseudomonas putida, UniProt Q88FY1)", "T1 construct": "full-length WT in pET-24a, C-terminal 6xHis tag, E. coli BL21(DE3), ~39 kDa, homohexamer, mononuclear Fe(II); domains residues 2-151 and 152-350", "T1 sequence (Q88FY1 1-350)": "B1 chain", "test": "X-ray crystal structure, […] Å, soaked crystals", "assay_type": "binding", "details": "soaked with 5 mM Fe2+, then 5 mM DHP and 20 mM sodium dithionite"}, "[2]": {"tested_on": "T2, Oc1ccc(O)nc1", "T2 construct": "full-length WT in pET-24a, C-terminal 6xHis tag, E. coli BL21(DE3), ~39 kDa, homohexamer, mononuclear Fe(II); domains residues 2-151 and 152-350", "test": "purified protein", "assay_type": "biochemical, Pseudomonas putida", "details": "20 mM Tris-HCl pH 8.0, 50 µM FeCl2, 25 °C, O2 (air)"}, "[3]": {"substrate": "Oc1ccc(O)nc1", "test": "purified protein", "assay_type": "biochemical, Pseudomonas putida", "details": "20 mM Tris-HCl pH 8.0, 50 µM FeCl2, 25 °C, O2 (air)"}, "[4]": {"target": "the molecule itself", "test": "crystal structure; hanging-drop vapor diffusion at 20 °C, 20% PEG 3350, pH 7.0; six molecules in the asymmetric unit; also crystals soaked with Fe2+ and DHP"}}, "data": [{"molecule": "Oc1ccc(O)nc1", "note": "[DHP, 2,5-dihydroxypyridine]", "values": [{"measurement": "X-ray crystal structure, 2.20 Å, soaked crystals", "setting": "[1]; active site of subunits C, D, E, F", "value": "four subunits (C, D, E, and F) of the six constituent molecules"}]}, {"molecule": "O=CNC(=O)/C=C\\C(=O)O", "note": "[NFM, N-formylmaleamic acid]", "values": [{"measurement": "X-ray crystal structure, 2.20 Å, soaked crystals", "setting": "[1]; active site of subunits A and B, formed in crystal from DHP", "value": "the other subunits (A and B) contain the product NFM"}]}, {"molecule": "NicX (2,5-dihydroxypyridine dioxygenase) (Pseudomonas putida KT2440; E308A)", "values": [{"measurement": "Km", "setting": "[2]", "value": "95.85 ± 3.68", "unit": "µM"}]}, {"molecule": "NicX (2,5-dihydroxypyridine dioxygenase) (Pseudomonas putida KT2440; V175F)", "values": [{"measurement": "Km", "setting": "[2]", "value": "117.9 ± 3.68", "unit": "µM"}]}, {"molecule": "B1", "values": [{"measurement": "Km", "setting": "[3]", "value": "94.9 ± 3.84", "unit": "µM"}]}, {"molecule": "B2", "values": [{"measurement": "binding result", "setting": "[4]", "value": "binds"}]}, {"molecule": "B3", "values": [{"measurement": "stoichiometry N", "setting": "[4]", "value": 6}]}]}
